Assay results from patent publication US10695406B2, “Modulation of cellular stress using a B-cell oxidative and/or endoplasmic reticulum stress inhibitor and a targeting agent” (THE UNIVERSITY OF QUEENSLAND, priority 2014, dated 2020).

B1: MPBS-50: IL-22-GLP-1R ligand fusion protein, sequence in FIG. 36, made by Novo Nordisk A/S (protein)
chain: EGTFTSDVSSYLEGQAAKEFIAWLVKGRHGEGTFTSDVSSYLEGQAAKEFIAWLVKGRAPISSHCRLDKSNFQQPYITNRTFMLAKEASLADNNTDVRLIGEKLFHGVSMSERCYLMKQVLNFTLEEVLFPQSDRFQPYMQEVVPFLARLSNRLSTCHIEGDDLHIQRNVQKLKDTVKKLGESGEIKAIGELDLLFMSLRNACIGGSHHHHHH
modifications: MPBS-50 - fusion protein comrpsing a GLP-1 ligand and IL-22
B2: MPBS-52: IL-22-GLP-1R ligand fusion protein, sequence in FIG. 36, made by Novo Nordisk A/S (protein)
chain: DLSKQMEEEAVRLFIEWLKNGGPSSGAPPPSGGSSSGGGSSSGGGSSSGGGSSSGAPISSHCRLDKSNFQQPYITNRTFMLAKEASLADNNTDVRLIGEKLFHGVSMSERCYLMKQVLNFTLEEVLFPQSDRFQPYMQEVVPFLARLSNRLSTCHIEGDDLHIQRNVQKLKDTVKKLGESGEIKAIGELDLLFMSLRNACIGGSHHHHHH
modifications: MPBS-52 - fusion protein comrpsing a GLP-1 ligand and IL-22
B3: MPBS-51: IL-22-GLP-1R ligand fusion protein, sequence in FIG. 36, made by Novo Nordisk A/S (protein)
chain: EGTFTSDVSSYLEGQAAKEFIAWLVKGRGGGSSSGGGSSSGGGSSSGGGSSSGAPISSHCRLDKSNFQQPYITNRTFMLAKEASLADNNTDVRLIGEKLFHGVSMSERCYLMKQVLNFTLEEVLFPQSDRFQPYMQEWPFLARLSNRLSTCHIEGDDLHIQRNVQKLKDTVKKLGESGEIKAIGELDLLFMSLRNACIGGSHHHHHH
modifications: MPBS-51 - fusion protein comrpsing a GLP-1 ligand and IL-22

How the values were obtained:
[1] = test system: mice with high fat diet induced obesity; test: Dose-finding efficacy study (IPGTT) in mice on a high fat diet for 27 weeks; assay type: in vivo, C57BL/6 male mice
Protocol: C57BL/6 male mice from 6-8 weeks of age were fed a high fat diet containing 46% of available energy as saturated fat, 34% carbohydrate, 20% protein (Speciality feeds, SF04-027) for 27 weeks and treated as follows:
IL-22-GLP-1R ligand fusion protein or IL-22 alone were administered twice weekly i.p. at the following doses: 1, 4, 16, 64 and 256 ng/g of IL-22 (0.12-15.4 nmoles/g) and the molar equivalents for IL-22-GLP-1 fusion proteins (n=3 per regimen, except for the lowest dose where n=2); control mice received PBS control only. A fasted Intraperitoneal glucose tolerance tests (IPGTT) was performed (2 g kg-i glucose) on day 14 when the experiment was terminated (tissues were not kept for analysis). Body weight was recorded on days 0, 5, 10 and 13.

[2] = test system: Murine MIN6N8 cells; test: ERAI-sXBP1 reporter ER stress in MIN6N8 cells with 0.5 mM palmitate; assay type: cell-based; settings: for ER stress caused by the protein alone: 15.4 nM, no palmitate; for ER stress caused by the protein alone / protection from palmitate-induced ER stress: 24 hours; for protection from palmitate-induced ER stress: co-treated with 0.5 mM palmitate, increasing concentrations; for in vitro efficacy for suppression of ER and oxidative stress (conclusion): murine and human cells
Protocol: (§1) Cell culture: Murine MIN6N8 cells were tested negative for mycoplasma. Cells were routinely cultured in phenol-red free DMEM (Life Technologies) containing 25 mM glucose (3.4 g/L sodium bicarbonate, 50 U/mL penicillin and streptomycin, 71.5 μM β-mercaptoethanol and 10% heat inactivated fetal bovine serum) and transferred to DMEM as above with 5.5 mM glucose 48 h prior to experimentation. Human LS174T cells were cultured in DMEM containing 10% heat-inactivated fetal bovine serum, 50 U mL^−1 penicillin and streptomycin.
ER Stress Measurement: MIN6N8 cells were transfected with the ERAI reporter plasmid (F-XBP1ΔDBD-venus, using Lipofectamine 2000 according to the manufacturer's instructions. For ERAI there was negligible fluorescence in the absence of ER stressors, but upon induction of ER stress, splicing of XBP1 mRNA by IRE1a results in the translation of Venus but not an active form of XBP1. Fluorescence was measured (excitation: 485 nm; emission: 520 nm) using a POLARstar Omega plate reader and cells were treated 48 h after transfection. […] After 24 h, ERAI-sXBP1 GFP reporter fluorescence was measured.

[3] = Clearance of IL-22 and IL-22 fusion proteins from serum; assay type: in vivo, C57BL/6 mice; settings: 256 ng/g human IL-22 or molar equivalents, i.p.
Protocol: (§2) Targeting to IL-22 to pancreas: Non-obese male C57BL/6 at 6-8 weeks of age. Each IL-22-GLP-1R ligand fusion protein or hIL-22 was administered i.p. at 256 ng/g of IL-22 and the molar equivalents for the individual fusion proteins (n=3 per regimen). IL-22-ScaB1 was administered at […]. Control mice received a PBS control i.p. injection only.
Serum concentrations of IL-22 and the IL-22-GLP-1R ligand fusion proteins were determined using a human IL-22 double-determinant ELISA (Biolegend; 434505) against a standard curve for the individual fusion proteins.

[4] = test system: Human LS174T cells; test: Oxidative stress (nitrite, Griess assay) in LS174T cells with 0.5 mM palmitate; assay type: cell-based; settings: 2 h prior to 0.5 mM palmitate for 30 min
Protocol: as §1
The Griess Reagent Kit for Nitrite Determination was performed according to the manufacturer's instructions (Molecular Probes) to assess the intracellular levels of nitrite (the stable metabolite of nitric oxide) using lysates of β-cells prepared in RIPA buffer (150 mM NaCl, 1% NP40, 0.5% sodium deoxycholate, 0.1% SDS, 50 mM Tris, pH 7.5).

[5] = test system: STAT3 phosphorylation; test: pStat3 staining in pancreatic islets vs liver, intestine and skin; assay type: in vivo, C57BL/6 mice; settings: for pStat3 ratio pancreatic islets vs intestine, fold change relative to human IL-22 / pStat3 ratio pancreatic islets vs liver, fold change relative to human IL-22 / pStat3 ratio pancreatic islets vs skin, fold change relative to human IL-22: molar equivalent of 256 ng/g IL-22, 30 min
Protocol: as §2
To assess in vivo activation of the IL-22 receptor signaling pathway, after 30 min the mice were sacrificed and the following tissues were snap frozen and sections were prepared for each mouse: pancreas, skin (ear, tail), colon (rolled), and liver. Sections were stained by immunofluorescence for phosphorylated STAT3 using the Phospho-Stat3 (Tyr705) (D3A7) antibody.

Molecule | body weight changes during treatment ([1]; days 0, 5, 10 and 13) | mean reduction in the increased AUC of the IPGTT of HFD vs normal chow fed control mice ([1]; doses >0.96 nmoles/g, two-week therapy) [%] | efficacy in IPGTT below 0.96 nmoles/g ([1]; two lowest doses) | ER stress caused by the protein alone [2] | fold more protein required for the same effect as recombinant mouse IL-22 in reducing ER stress ([2]; murine MIN6N8 cells, 0.5 mM palmitate, 24 h) [fold] | clearance / serum concentration over the first 2 hours [3] | protection from palmitate-induced oxidative stress (nitrite production) [4] | pStat3 ratio pancreatic islets vs intestine, fold change relative to human IL-22 [5] | pStat3 ratio pancreatic islets vs liver, fold change relative to human IL-22 [5] | pStat3 ratio pancreatic islets vs skin, fold change relative to human IL-22 [5] | protection from palmitate-induced ER stress [2] | in vitro efficacy for suppression of ER and oxidative stress (conclusion) [2] | STAT3 phosphorylation in tissues in vivo ([5]; 30 min after administration)
human IL-22: recombinant human IL-22 | little change in body weight | > 50 | diminished substantially | did not cause ER stress | ~16 | cleared slightly more slowly | – | – | – | – | – | – | –
B1 | – | – | – | did not cause ER stress | – | cleared with similar kinetics to recombinant human IL-22 | inhibited oxidative stress (nitrite production) but only toward the highest end of the concentration range used | not greater than for native human IL-22 | not greater than for native human IL-22 | 45 fold | inhibited ER stress in a dose dependent manner at a similar efficacy to a molar equivalent concentration of human IL-22 | have retained in vitro efficacy | –
B2 | – | – | – | did not cause ER stress | – | lower and somewhat more extended/later peak concentration | effectively suppressed oxidative stress with a similar efficacy to equivalent molar concentrations of human IL-22 | 338 fold | 396 fold | 4,840 fold | effectively suppressed ER stress | have retained in vitro efficacy | –
B3 | – | – | – | did not cause ER stress | – | lower and somewhat more extended/later peak concentration | did not effectively suppress oxidative stress at any of the concentrations tested | not greater than for native human IL-22 | not greater than for native human IL-22 | 113 fold | did not effectively suppress ER stress at any of the concentrations tested | appears inactive in-vitro | did induce STAT3 phosphorylation in the pancreas as well as liver and gut
